Data: the DeepSol protein solubility set

Test: soluble on expression in E. coli; label from the status in PepcDB or PDB records

Sequence | soluble on expression in E. coli
MGSDKIHHHHHHMAADVATPFQQLRINKFAAIQNGQFVASFKVPRSAGFTLIIPNADDFLTNNISIMTPDNKVLDASNFAAFGVEFSQFSPDNELTAFLATGNSWIIKFSDVIPGSYTVRGVTSSAKSHLPIRVLVKNSDIALHLVIGSPSNIPMVNHHLPISVLMVDGDLPYINGNVSFEIFKDGEALQHANIRDDGVYPDYQANDGTYSTLFMPLSAGVYDVLINISGRNKNGDKFEAQIFRSFKVLQDNVYLTGKHSEVLIDEDGDGYNDALMLEFETGGVFQEEGVYYITVNLETNDGRTLVAHQRIESPEKKFYVKFDGKYLGTLDYSGAFKFFSIVIEYNDSIIHLNQSFGSTSYYDHDSWERDDLLYLGNVTFEPIYSADGRFIEMIDVSFEVDTLPTAARFGYSATITTVGNEHVGVYGNPDIELKKGINRITFSIPAADFAKLQSNTALKISQLTMYPLIKGGNVISKRNVATSELYSCWDFRGCSTAENAIPVAVDDEVTSTGKAMYIHVAQNDYDGDLLKVSDQKKDNFGTLTQWSIQFD | not soluble
MSLSKTYVGSRVRQLRNERGFSQAALAQMLEISPSYLNQIEHDVRPLTVAVLLRITEVFGVDATFFASQDDTRLVAELREVTLDRDLDIAIDPHEVAEMVSAHPGLACAVVNLHRRYRITTAQLAAATEERFSDGSGRGSITMPHEEVRDYFYQRQNYLHALDTAAEDLTAQMRMHHGDLARELTRRLTEVHGVRINKRIDLGDTVLHRYDPATNTLEISSHLSPGQQVFKMAAELAYLEFGDLIDAMVTDGKFTSAESRTLARLGLANYFAAATVLPYRQFHDVAENFRYDVERLSAFYSVSYETIAHRLSTLQRPSMRGVPFTFVRVDRAGNMSKRQSATGFHFSSSGGTCPLWNVYETFANPGKILVQIAQMPDGRNYLWVARTVELRAARYGQPGKTFAIGLGCELRHAHRLVYSEGLDLSGDPNTAATPIGAGCRVCERDNCPQRAFPALGRALDLDEHRSTVSPYLVKQEGHHHHHH | soluble
MDDPKQPTWNVSPSLRRHARELRKKSTEAERLMWGELRDKRLNGFSFKRQVPIGPYIADFACHAKKLVVELDGGQHFSDDGERSDAARTAAIEARGFRVIRFSNHEVMTNRAGVLQSIADVLAARVLTPTLSRKRERERAKRAAKPRSDAGAANDQGDE | not soluble
MDKFRVYGQSRLSGSVNISGAKNAALPILFAAILATEPVKLTNVPELKDIETTLKILRQLGVVVDRDATGAVLLDASNINHFTAPYELVKTMRASIWALAPLVARFHQGQVSLPGGCSIGARPVDLHISGLEKLGADIVLEEGYVKAQVSDRLVGTRIVIEKVSVGATLSIMMAATLAKGTTVIENAAREPEIVDTADFLNKMGAKITGAGSAHITIEGVERLTGCEHSVVPDRIETGTFLIAAAISGGCVVCQNTKADTLDAVIDKLREAGAQVDVTENSITLDMLGNRPKAVNIRTAPHPGFPTDMQAQFTLLNMVAEGTSIITETIFENRFMHIPELIRMGGKAEIEGNTAVCHGVEQLSGTEVIATDLRASISLVLAGCIATGETIVDRIYHIDRGYEHIEDKLRGLGAKIERFSGSDEA | soluble
MSLKKRYDLSYNFNVHEVPRAALEERFDPKSPTKRSIAIVFEEIKNWISDIPYVISLSYTDAQDKSKKIMNVTTDSLTKVLQADLPGSYNLEYIESKFCPGEIVGKSNVLVTMPVAPTMEVKSFPILDQCVGQVGLNFELSFTGAPPYYYNTKIYKLENGERKLYDAKRYTSEGTRNRFSYSPPKEGNYEIVFDTVSNKLFTEPIKLEPVKEYTFKTSMRVKPSASLKLHHDLKLCLGDHSSVPVALKGQGPFTLTYDIIETFSSKRKTFEIKEIKTNEYVIKTPVFTTGGDYILSLVSIKDSTGCVVGLSQPDAKIQVRRDEGHHHHHH | soluble
MSGTEEAILGGRDSHPAAGGGSVLCFGQCQYTAEEYQAIQKALRQRLGPEYISSRMAGGGQKVCYIEGHRVINLANEMFGYNGWAHSITQQNVDFVDLNNGKFYVGVCAFVRVQLKDGSYHEDVGYGVSEGLKSKALSLEKARKEAVTDGLKRALRSFGNALGNCILDKDYLRSLNKLPRQLPLEVDLTKAKRQDLEPSVEEARYNSCRPNM | soluble
KVITRGEATRLINKEDAVVVDLRQRDDFRKGHIAGAINLLPSDIKANNVGELEKHKSQPIIVVDGSGMQAQEPASALNKAGFEKVFVLKEGIAGWSGENLPLVRG | soluble
MSLKVLAFDTSSKALSLAILEDKQVLAETTINIKKNHSITLMPAIDFLMASLDWTPKDLDRIVVAEGPGSYTGLRIAVATAKTLAHTLNIELVGMSSLLALVPYQQEGLFIPLMDARRNNVYAGFYENAKPVMAEAHLPFERVIELIKGASQVTFVGEVGPFVEQIQKHLPRTDYKETLPNAANLALLAWDKEADSLHDFVPNYLKRVEAEENWLKNHTESGESYIKRLEGHHHHHH | soluble
MDGMTPNRLLDLAIQSLLSNESAAIQALEDIPRELFVPLFIAAFKGGHKNTLSAMVKVWPFYCLHMGSLRILEPQHELLKAIIENLPVHPAQTSAFWGPKLRILDLRQDTNCRITCPEVSTKSPSCFHSCIYSDSSITKIERQLCFINSGCKTLLPRPVELILDLFLDGSLIEKDFLILLMHKIEESLGFLHVCCRDLQIDKPCKCKCTLKFLDLQCVDQLSVDRGSLSDITSILGQMGHLESLTLSNVTFRSLRGKVFKIFLSHLQRMENLKELSFSSFRLKNHLDRVLRVLPPDLDFLYLPFCGLSYRDIKFMSQSPHVTHLKLLNLSNNLMYWDDFGPFHSVLSNLSGTLQHLEINHCHISDSAISALIPALIRCTHLRVLGFACNPITMPMLVNIMHHLTPMMELKYVIYPIPVHCYERWHFHGSLDRGKLAIKVLGLPVQAKYPRNGWSKAISSSDENIPKAQTDTIPTCSWSWSLSRLQSAVQPPRDNLGRWKDTYAERAGNAVHGAV | not soluble
MVARRKGERVVRKNEVENVQQRACANRRERQRTKELNDAFTLLRKLIPSMPSDKMSKIHTLRIATDYISFLDEMQKNGCKLYGHSIFDEKRGYNLQSAFNMWRGNNGYTPIAGPSQLPPLQSAHIPPPAPSSIPPHCLMPQPWYQTCPPPKQEFHELCPISTPNPNSNPNQLTPIHWQ | not soluble
GYDCLGYYQNQEDIMNSPKRQSSVNLGAGDLKYNDFNGDGIIDGSDQHRIGKNSMPRGQYGFSADLNYKGWFMNMLWQGATPADLYMGGMIQGSQSGSGYPPVIYDFQTDVWTPNNTGARYPRLRSTASYNGSNNYGSSDFWLINTGYLRLKTLSIGYDFKHKLLKRVAWMNKCNVSLNGYNLLTFSKANKFDIDPEIGDGNLYTYPVSRVYSISVNVGF | not soluble
MTQSRRTLTERRADELRLAIAEVAFDMFVADGNTSATVERISQAVGIAPRTFYRHFEVKEDVVRPIFTKSSDVIVDALASTGEDVALLEGLVAAFLSQMDGTALTPEARTFLGLMLTTPAYKIRWLDVDPPLRQAVADLLDRRLGLSADPYIHLLAADLIVHAARDAFQHWVSSQEREPTEALLRRSFTLILKGLEHVIPRT | not soluble
PGAPRRLIDAALAAGAQGLVIEAMGSGNVGTDIGVALGEALDAGIPVVISTRVPRGEVFGAYGGAGGGKTLASKGAVNSTYFRSGQARVLLAIAIASGVHPATLL | not soluble
MGSDKIHHHHHHSLQAQSTVSHNLANVDTVGFKAALANTEAFQIRGKGYPSRIDALHVDQGFDRSQGHQKVTGNPLDVSLQQDRWLAVQSPDGSEAYTRNGELALTANGQLVTANGHAVLDEGGNPMTIPPHQAMEIGSDGSISIIPQGEGPQTMAIVGKMKVVDAPADRLMRRPDGLMRNTSTDPAQAFAVATGKTVNSGMLEGSNVDAAGALVEMIQLQRQFEMQVKIIKNGDDNAQSANSLLRVSG | not soluble
MTMDFQITRRYPCSYLPGELARSRIVVTDDTLSDSNTYAQLIQQGYRRSGSLIYRPDCDYCHACIPVRIPVELFDPNRTQRRIWKRHQHLQIAWHPLHFDPVHFDLYQRYQKSRHTNGSMDQDDENGRKQYRDFLLKSTVDSFLVTFHENEQLRMVSIIDRLPDGLSPVYTFFEPDVPGSSYGTFNILWQTAQCRADRLPYLYLGYWIANSRKMHYKANFQPLQYLIDNQWQYRTTNRLEHHHHHH | not soluble
MGSDKIHHHHHHMLEIGFCTLEDQCPYLKDKRSRIEYKYIENCPKEINNELIKRGWRRFGRYFSRPICKDCDECLSLRILVNEYNFSRSERRVVNKNINTKVILRTPNLSNEHLFLYDKYHRFMEEKKNWKRYDLSFKQYYNLYVDGFMNFGYELAFYIEDKLVCVDLIDILEDGISSIYCFYDPDFSYFSLGKFSLLNEIQIAKKMNLDYIYLGYFVKKCQSLSYKADYTPNEILKGTKELFENEVLWEK | not soluble
